B1: Type-1 angiotensin II receptor A (Rattus norvegicus (Rat)), P25095 (parent)
chain: MALNSSAEDGIKRIQDDCPKAGRHSYIFVMIPTLYSIIFVVGIFGNSLVVIVIYFYMKLKTVASVFLLNLALADLCFLLTLPLWAVYTAMEYRWPFGNHLCKIASASVSFNLYASVFLLTCLSIDRYLAIVHPMKSRLRRTMLVAKVTCIIIWLMAGLASLPAVIHRNVYFIENTNITVCAFHYESRNSTLPIGLGLTKNILGFLFPFLIILTSYTLIWKALKKAYEIQKNKPRNDDIFRIIMAIVLFFFFSWVPHQIFTFLDVLIQLGVIHDCKISDIVDTAMPITICIAYFNNCLNPLFYGFLGKKFKKYFLQLLKYIPPKAKSHSSLSTKMSTLSYRPSDNMSSSAKKPASCFEVE

Variants of: B1
Conditions: with angt_human AGT
In the case of MALNSSAEDGIKRIQDDCPKAGRHSYIFVMIPTLYSIIFVVGIFGNSLVVIVIYFYMKLKTVASVFLLNLALADLAFLLTLPLWAVYTAMEYRWPFGNHLCKIASASVSFNLYASVFLLTCLSIDRYLAIVHPMKSRLRRTMLVAKVTCIIIWLMAGLASLPAVIHRNVYFIENTNITVCAFHYESRNSTLPIGLGLTKNILGFLFPFLIILTSYTLIWKALKKAYEIQKNKPRNDDIFRIIMAIVLFFFFSWVPHQIFTFLDVLIQLGVIHDCKISDIVDTAMPITIAIAYFNNCLNPLFYGFLGKKFKKYFLQLLKYIPPKAKSHSSLSTKMSTLSYRPSDNMSSSAKKPASCFEVE [C76A;C289A], the “effect of a mutation on the interaction” value is reported as “decreasing interaction”.

Variants of: B1
Conditions: with angt_human AGT
Remark: another data set of the same source
For MALNSSAEDGIKRIQDDCPKAGRHSYIFVMIPTLYSIIFVVGIFGNSLVVIVIYFYMKLKTVASVFLLNLALADLAFLLTLPLWAVYTAMEYRWPFGNHLCKIASASVSFNLYASVFLLTCLSIDRYLAIVHPMKSRLRRTMLVAKVTCIIIWLMAGLASLPAVIHRNVYFIENTNITVCAFHYESRNSTLPIGLGLTKNILGFLFPFLIILTSYTLIWKALKKAYEIQKNKPRNDDIFRIIMAIVLFFFFSWVPHQIFTFLDVLIQLGVIHDCKISDIVDTAMPITIAIAYFNNCLNPLFYGFLGKKFKKYFLQLLKYIPPKAKSHSSLSTKMSTLSYRPSDNMSSSAKKPASCFEVE [C76A;C289A], the “effect of a mutation on the interaction” value was “decreasing interaction”.
With MALNSSAEDGIKRIQDDCPKAGRHSYIFVMIPTLYSIIFVVGIFGNSLVVIVIYFYMKLKTVASVFLLNLALADLCFLLTLPLWAVYTAMEYRWPFGNHLCKIASASVSFNLYASVFLLTCLSIDRYLAIVHPMKSRLRRTMLVAKVTCIIIWLMAGLASLPAVIHRNVYFIENTNITVCAFHYESRNSTLPIGLGLTKNILGFLFPFLIILTSYTLIWKALKKAYEIQKNKPRNDDIFRIIMAIVLFFFFSWVPHQIFTFLDVLIQLGVIHDCKISDIVDTAMPITICIAYFNCCLNPLFYGFLGKKFKKYFLQLLKYIPPKAKSHSSLSTKMSTLSYRPSDNMSSSAKKPASCFEVE [N295C] the “effect of a mutation on the interaction” value was “decreasing interaction”.

Variants of: B1
Conditions: with angt_human AGT
Remark: another data set of the same source
With MALNSSAEDGIKRIQDDCPKAGRHSYIFVMIPTLYSIIFVVGIFGNSLVVIVIYFYMKLKTVASVFLLNLALADLAFLLTLPLWAVYTAMEYRWPFGNHLCKIASASVSFNLYASVFLLTCLSIDRYLAIVHPMKSRLRRTMLVAKVTCIIIWLMAGLASLPAVIHRNVYFIENTNITVCAFHYESRNSTLPIGLGLTKNILGFLFPFLIILTSYTLIWKALKKAYEIQKNKPRNDDIFRIIMAIVLFFFFSWVPHQIFTFLDVLIQLGVIHDCKISDIVDTAMPITIAIAYFNNCLNPLFYGFLGKKFKKYFLQLLKYIPPKAKSHSSLSTKMSTLSYRPSDNMSSSAKKPASCFEVE [C76A;C289A] the “effect of a mutation on the interaction” value was “increasing interaction”.
MALNSSAEDGIKRIQDDCPKAGRHSYIFVMIPTLYSIIFVVGIFGNSLVVIVIYFYMKLKTVASVFLLNLALADLCFLLTLPLWAVYTAMEYRWPFGNHLCKIASASVSFNLYASVFLLTCLSIDRYLAIVHPMKSRLRRTMLVAKVTCIIIWLMAGLASLPAVIHRNVYFIENTNITVCAFHYESRNSTLPIGLGLTKNILGFLFPFLIILTSYTLIWKALKKAYEIQKNKPRNDDIFRIIMAIVLFFFFSWVPHQIFTFLDVLIQLGVIHDCKISDIVDTAMPITICIAYFCNCLNPLFYGFLGKKFKKYFLQLLKYIPPKAKSHSSLSTKMSTLSYRPSDNMSSSAKKPASCFEVE [N294C] was tested, and the “effect of a mutation on the interaction” value was “increasing interaction”.

Variants of: B1
Conditions: with angt_human AGT
Remark: another data set of the same source
In the case of MALNSSAEDGIKRIQDDCPKAGRHSYIFVMIPTLYSIIFVVGIFGNSLVVIVIYFYMKLKTVASVFLLNLALADLAFLLTLPLWAVYTAMEYRWPFGNHLCKIASASVSFNLYASVFLLTCLSIDRYLAIVHPMKSRLRRTMLVAKVTCIIIWLMAGLASLPAVIHRNVYFIENTNITVCAFHYESRNSTLPIGLGLTKNILGFLFPFLIILTSYTLIWKALKKAYEIQKNKPRNDDIFRIIMAIVLFFFFSWVPHQIFTFLDVLIQLGVIHDCKISDIVDTAMPITICIAYFNNALNPLFYGFLGKKFKKYFLQLLKYIPPKAKSHSSLSTKMSTLSYRPSDNMSSSAKKPASCFEVE [C76A;C296A], the “effect of a mutation on the interaction” value is reported as “decreasing interaction”.

Variants of: B1
Conditions: with angt_human AGT
Remark: another data set of the same source
In the case of MALNSSAEDGIKRIQDDCPKAGRHSYIFVMIPTLYSIIFVVGIFGNSLVVIVIYFYMKLKTVASVFLLNLALADLAFLLTLPLWAVYTAMEYRWPFGNHLCKIASASVSFNLYASVFLLTCLSIDRYLAIVHPMKSRLRRTMLVAKVTCIIIWLMAGLASLPAVIHRNVYFIENTNITVCAFHYESRNSTLPIGLGLTKNILGFLFPFLIILTSYTLIWKALKKAYEIQKNKPRNDDIFRIIMAIVLFFFFSWVPHQIFTFLDVLIQLGVIHDCKISDIVDTAMPITIAIAYFNNALNPLFYGFLGKKFKKYFLQLLKYIPPKAKSHSSLSTKMSTLSYRPSDNMSSSAKKPASCFEVE [C76A;C289A;C296A], the “effect of a mutation on the interaction” value is reported as “decreasing interaction”.

Variants of: B1
Conditions: with angt_human AGT
Remark: another data set of the same source
In the case of MALNSSAEDGIKRIQDDCPKAGRHSYIFVMIPTLYSIIFVVGIFGNSLVVIVIYFYMKLKTVASVFLLNLALADLCFLLTLPLWAVYTAMEYRWPFGNHLCKIASASVSFNLYASVFLLTCLSIDRYLAIVHPMKSRLRRTMLVAKVTAIIIWLMAGLASLPAVIHRNVYFIENTNITVCAFHYESRNSTLPIGLGLTKNILGFLFPFLIILTSYTLIWKALKKAYEIQKNKPRNDDIFRIIMAIVLFFFFSWVPHQIFTFLDVLIQLGVIHDCKISDIVDTAMPITICIAYFNNCLNPLFYGFLGKKFKKYFLQLLKYIPPKAKSHSSLSTKMSTLSYRPSDNMSSSAKKPASCFEVE [C149A], the “effect of a mutation on the interaction” value is reported as “decreasing interaction”.

Variants of: B1
Conditions: with angt_human AGT
Remark: another data set of the same source
In the case of MALNSSAEDGIKRIQDDCPKAGRHSYIFVMIPTLYSIIFVVGIFGNSLVVIVIYFYMKLKTVASVFLLNLALADLCFLLTLPLWAVYTAMEYRWPFGNHLCKIASASVSFNLYASVFLLTCLSIDRYLAIVHPMKSRLRRTMLVAKVTCIIIWLMAGLASLPAVIHRNVYFIENTNITVCAFHYESRNSTLPIGLGLTKNILGFLFPFLIILTSYTLIWKALKKAYEIQKNKPRNDDIFRIIMAIVLFFFFSWVPHAIFTFLDVLIQLGVIHDCKISDIVDTAMPITICIAYFNNCLNPLFYGFLGKKFKKYFLQLLKYIPPKAKSHSSLSTKMSTLSYRPSDNMSSSAKKPASCFEVE [Q257A], the “effect of a mutation on the interaction” value is reported as “decreasing interaction”.

Variants of: B1
Conditions: with angt_human AGT
Remark: another data set of the same source
For MALNSSAEDGIKRIQDDCPKAGRHSYIFVMIPTLYSIIFVVGIFGNSLVVIVIYFYMKLKTVASVFLLNLALADLCFLLTLPLWAVYTAMEYRWPFGNHLCKIASASVSFNLYASVFLLTCLSIDRYLAIVHPMKSRLRRTMLVAKVTCIIIWLMAGLASLPAVIHRNVYFIENTNITVCAFHYESRNSTLPIGLGLTKNILGFLFPFLIILTSYTLIWKALKKAYEIQKNKPRNDDIFRIIMAIVLFFFFSWVPHQIFTFLDVLIQLGVIHDCKISDIVDTAMPIAICIAYFNNCLNPLFYGFLGKKFKKYFLQLLKYIPPKAKSHSSLSTKMSTLSYRPSDNMSSSAKKPASCFEVE [T287A], the “effect of a mutation on the interaction” value was “decreasing interaction”.

Variants of: B1
Conditions: with angt_human AGT
Remark: another data set of the same source
With MALNSSAEDGIKRIQDDCPKAGRHSYIFVMIPTLYSIIFVVGIFGNSLVVIVIYFYMKLKTVASVFLLNLALADLCFLLTLPLWAVYTAMEYRWPFGNHLCKIASASVSFNLYASVFLLTCLSIDRYLAIVHPMKSRLRRTMLVAKVTCIIIWLMAGLASLPAVIHRNVYFIENTNITVCAFHYESRNSTLPIGLGLTKNILGFLFPFLIILTSYTLIWKALKKAYEIQKNKPRNDDIFRIIMAIVLFFFFSWVPHQIFTFLDVLIQLGVIHDCKISDIVDTAMPITICIAAFNNCLNPLFYGFLGKKFKKYFLQLLKYIPPKAKSHSSLSTKMSTLSYRPSDNMSSSAKKPASCFEVE [Y292A] the “effect of a mutation on the interaction” value was “decreasing interaction”.
